Results: patent US4285932A, “Enzyme derivatives for use in the treatment of venous thrombosis” (Beecham Group Limited, priority 1978, dated 1981)

B1: p-Anisoyl Human Plasmin (protein, UniProt P00747 20-580; P00747 581-810, looked up)
Plasmin heavy chain A: EPLDDYVNTQGASLFSVTKKQLGAGSIEECAAKCEEDEEFTCRAFQYHSKEQQCVIMAENRKSSIIIRMRDVVLFEKKVYLSECKTGNGKNYRGTMSKTKNGITCQKWSSTSPHRPRFSPATHPSEGLEENYCRNPDNDPQGPWCYTTDPEKRYDYCDILECEEECMHCSGENYDGKISKTMSGLECQAWDSQSPHAHGYIPSKFPNKNLKKNYCRNPDRELRPWCFTTDPNKRWELCDIPRCTTPPPSSGPTYQCLKGTGENYRGNVAVTVSGHTCQHWSAQTPHTHNRTPENFPCKNLDENYCRNPDGKRAPWCHTTNSQVRWEYCKIPSCDSSPVSTEQLAPTAPPELTPVVQDCYHGDGQSYRGTSSTTTTGKKCQSWSSMTPHRHQKTPENYPNAGLTMNYCRNPDADKGPWCFTTDPSVRWEYCNLKKCSGTEASVVAPPPVVLLPDVETPSEEDCMFGNGKGYRGKRATTVTGTPCQDWAAQEPHRHSIFTPETNPRAGLEKNYCRNPDGDVGGPWCYTTNPRKLYDYCDVPQCAAPSFDCGKPQVEPKKCPGR
Plasmin light chain B: VVGGCVAHPHSWPWQVSLRTRFGMHFCGGTLISPEWVLTAAHCLEKSPRPSSYKVILGAHQEVNLEPHVQEIEVSRLFLEPTRKDIALLKLSSPAVITDKVIPACLPSPNYVVADRTECFITGWGETQGTFGAGLLKEAQLPVIENKVCNRYEFLNGRVQSTELCAGHLAGGTDSCQGDSGGPLVCFEKDKYILQGVTSWGLGCARPNKPGVYVRVSRFVTWIEGVMRNN
modifications: Plasmin active-site p-anisoyl acylated
notes: human plasmin acylated at the catalytic site with p-amidinophenyl p'anisate
B2: O-Anisoyl: human plasmin, active site serine blocked by o-anisoyl (acylating agent of Example 15) (protein, UniProt P00747 20-580; P00747 581-810, looked up)
Plasmin heavy chain A: EPLDDYVNTQGASLFSVTKKQLGAGSIEECAAKCEEDEEFTCRAFQYHSKEQQCVIMAENRKSSIIIRMRDVVLFEKKVYLSECKTGNGKNYRGTMSKTKNGITCQKWSSTSPHRPRFSPATHPSEGLEENYCRNPDNDPQGPWCYTTDPEKRYDYCDILECEEECMHCSGENYDGKISKTMSGLECQAWDSQSPHAHGYIPSKFPNKNLKKNYCRNPDRELRPWCFTTDPNKRWELCDIPRCTTPPPSSGPTYQCLKGTGENYRGNVAVTVSGHTCQHWSAQTPHTHNRTPENFPCKNLDENYCRNPDGKRAPWCHTTNSQVRWEYCKIPSCDSSPVSTEQLAPTAPPELTPVVQDCYHGDGQSYRGTSSTTTTGKKCQSWSSMTPHRHQKTPENYPNAGLTMNYCRNPDADKGPWCFTTDPSVRWEYCNLKKCSGTEASVVAPPPVVLLPDVETPSEEDCMFGNGKGYRGKRATTVTGTPCQDWAAQEPHRHSIFTPETNPRAGLEKNYCRNPDGDVGGPWCYTTNPRKLYDYCDVPQCAAPSFDCGKPQVEPKKCPGR
Plasmin light chain B: VVGGCVAHPHSWPWQVSLRTRFGMHFCGGTLISPEWVLTAAHCLEKSPRPSSYKVILGAHQEVNLEPHVQEIEVSRLFLEPTRKDIALLKLSSPAVITDKVIPACLPSPNYVVADRTECFITGWGETQGTFGAGLLKEAQLPVIENKVCNRYEFLNGRVQSTELCAGHLAGGTDSCQGDSGGPLVCFEKDKYILQGVTSWGLGCARPNKPGVYVRVSRFVTWIEGVMRNN
modifications: plasmin o-anisoyl acylated active site
B3: N-methyl-p-guanidinobenzoyl: human plasmin, active site serine blocked by N-methyl-p-guanidinobenzoyl (protein, UniProt P00747 20-580; P00747 581-810, looked up)
Plasmin heavy chain A: EPLDDYVNTQGASLFSVTKKQLGAGSIEECAAKCEEDEEFTCRAFQYHSKEQQCVIMAENRKSSIIIRMRDVVLFEKKVYLSECKTGNGKNYRGTMSKTKNGITCQKWSSTSPHRPRFSPATHPSEGLEENYCRNPDNDPQGPWCYTTDPEKRYDYCDILECEEECMHCSGENYDGKISKTMSGLECQAWDSQSPHAHGYIPSKFPNKNLKKNYCRNPDRELRPWCFTTDPNKRWELCDIPRCTTPPPSSGPTYQCLKGTGENYRGNVAVTVSGHTCQHWSAQTPHTHNRTPENFPCKNLDENYCRNPDGKRAPWCHTTNSQVRWEYCKIPSCDSSPVSTEQLAPTAPPELTPVVQDCYHGDGQSYRGTSSTTTTGKKCQSWSSMTPHRHQKTPENYPNAGLTMNYCRNPDADKGPWCFTTDPSVRWEYCNLKKCSGTEASVVAPPPVVLLPDVETPSEEDCMFGNGKGYRGKRATTVTGTPCQDWAAQEPHRHSIFTPETNPRAGLEKNYCRNPDGDVGGPWCYTTNPRKLYDYCDVPQCAAPSFDCGKPQVEPKKCPGR
Plasmin light chain B: VVGGCVAHPHSWPWQVSLRTRFGMHFCGGTLISPEWVLTAAHCLEKSPRPSSYKVILGAHQEVNLEPHVQEIEVSRLFLEPTRKDIALLKLSSPAVITDKVIPACLPSPNYVVADRTECFITGWGETQGTFGAGLLKEAQLPVIENKVCNRYEFLNGRVQSTELCAGHLAGGTDSCQGDSGGPLVCFEKDKYILQGVTSWGLGCARPNKPGVYVRVSRFVTWIEGVMRNN
modifications: plasmin N-methyl-p-guanidinobenzoyl acylated active site
B4: p-Acetamidobenzoyl: human plasmin, active site serine blocked by p-acetamidobenzoyl (acylating agent of Example 18) (protein, UniProt P00747 20-580; P00747 581-810, looked up)
Plasmin heavy chain A: EPLDDYVNTQGASLFSVTKKQLGAGSIEECAAKCEEDEEFTCRAFQYHSKEQQCVIMAENRKSSIIIRMRDVVLFEKKVYLSECKTGNGKNYRGTMSKTKNGITCQKWSSTSPHRPRFSPATHPSEGLEENYCRNPDNDPQGPWCYTTDPEKRYDYCDILECEEECMHCSGENYDGKISKTMSGLECQAWDSQSPHAHGYIPSKFPNKNLKKNYCRNPDRELRPWCFTTDPNKRWELCDIPRCTTPPPSSGPTYQCLKGTGENYRGNVAVTVSGHTCQHWSAQTPHTHNRTPENFPCKNLDENYCRNPDGKRAPWCHTTNSQVRWEYCKIPSCDSSPVSTEQLAPTAPPELTPVVQDCYHGDGQSYRGTSSTTTTGKKCQSWSSMTPHRHQKTPENYPNAGLTMNYCRNPDADKGPWCFTTDPSVRWEYCNLKKCSGTEASVVAPPPVVLLPDVETPSEEDCMFGNGKGYRGKRATTVTGTPCQDWAAQEPHRHSIFTPETNPRAGLEKNYCRNPDGDVGGPWCYTTNPRKLYDYCDVPQCAAPSFDCGKPQVEPKKCPGR
Plasmin light chain B: VVGGCVAHPHSWPWQVSLRTRFGMHFCGGTLISPEWVLTAAHCLEKSPRPSSYKVILGAHQEVNLEPHVQEIEVSRLFLEPTRKDIALLKLSSPAVITDKVIPACLPSPNYVVADRTECFITGWGETQGTFGAGLLKEAQLPVIENKVCNRYEFLNGRVQSTELCAGHLAGGTDSCQGDSGGPLVCFEKDKYILQGVTSWGLGCARPNKPGVYVRVSRFVTWIEGVMRNN
modifications: plasmin p-acetamidobenzoyl acylated active site

Tested on: Human Plasmin
Assay: Deacylation (hydrolysis) of active-site blocked human plasmin, pseudo-first order rate constant followed by regain of activity on chromogenic substrate S-2251
Format: biochemical
Conditions: for Deacylation rate, Human Plasmin K sec^-1 × 10^4: active site serine substituted human plasmin, pH 7.4, 37° C.
Procedure: The pseudo-first order rate constant is determined by hydrolysing the enzyme derivative under physiological conditions i.e. in isotonic aqueous media at pH 7.4 and at 37° C. At regular intervals aliquots are withdrawn and incubated with a chromogenic or fluorogenic protease substrate such as S-2251 (H-D-Val-Leu-Lys-p-nitroanilide 2HCl) and the rate of conversion of the substrate measured.
The hydrolysis is followed until such time as the rate of conversion of substrate reaches a maximum. The rate constant k is then calculated by plotting: […]
loge (1-^At /Amax) against t
where Amax the maximum rate at which an aliquot converts substrate and At is the rate at which an aliquot converts substrate at time t.

| Molecule | time for quantitative reactivation to free plasmin (conditions specified for deacylation (isotonic aqueous media, pH 7.4, 37° C.)) | Deacylation rate, Human Plasmin K sec^-1 × 10^4 [sec^-1 × 10^4] |
| --- | --- | --- |
| B1 | approximately two | – |
| B2 | – | 1.82 |
| B3 | – | 2.0 |
| B4 | – | 2.70 |
